How the values were obtained:
[1] = target: T1, HLA-A*02:01 on T2 cells alone (no peptide added) (human); assay: flow cytometry, phage on T2 without peptide
T1 construct: TAP-deficient T2 cells without pulsed peptide; negative control target, and the HLA molecule whose stabilisation by peptides is read in the T2 stabilization assay; also called HLA-A*02 molecule; HLA-A2 molecule

[2] = target: T2, Foxp3-7 peptide/HLA-A*02:01 complex on the cell surface (human); assay: flow cytometry, phage on T2 + Foxp3-7 peptide; secondary only 318, unstained 95.8
T2 construct: also called Foxp3-7/HLA-A2 complex

T2+EW [3] = target: T3, T2+EW (Homo sapiens, UniProt A*02:01); assay: flow cytometry, phage on T2 + EW peptide; secondary only 310, unstained 93
T3 construct: on the surface of T2 cells; irrelevant control peptide; also called EW peptide/HLA-A*02:01 complex on T2 cells; T2 pulsed with EW peptide

[4] = target: T1, HLA-A*02:01 on T2 cells alone (no …); assay: flow cytometry, phage on T2 without peptide; secondary only 320, unstained 91.4
T2+EW [5] = target: T3, T2+EW; assay: flow cytometry, phage on T2 + EW peptide; secondary only 113, unstained 94.7
[6] = target: T2, Foxp3-7 peptide/HLA-A*02:01 complex on …; assay: flow cytometry, phage on T2 + Foxp3-7 peptide; secondary only 116, unstained 93.8
[7] = target: T2, Foxp3-7 peptide/HLA-A*02:01 complex on …; assay: flow cytometry, phage on T2 + Foxp3-7 peptide; secondary only 133, unstained 103
[8] = target: T4, R3 (RHAMM-R3) peptide/HLA-A*02:01 complex on T2 cells (human); assay: flow cytometry, phage on T2 + R3 peptide (as the table names the samples); secondary only 109, unstained 80.9
T4 construct: Control target of the phage staining of T2 cells; also called T2 cells pulsed with R3 peptide; RHAMM 3 (R3)

[9] = target: T2, Foxp3-7 peptide/HLA-A*02:01 complex on …; assay: flow cytometry, phage on T2 + Foxp3-7 peptide; secondary only 104, unstained 81.7
[10] = target: T4, R3 (RHAMM-R3) peptide/HLA-A*02:01 …; assay: flow cytometry, phage on T2 + R3 peptide; secondary only 123, unstained 99.8
[11] = target: T1, HLA-A*02:01 on T2 cells alone (no …); assay: flow cytometry, phage on T2 without peptide; secondary only 121, unstained 106
[12] = target: T1, HLA-A*02:01 on T2 cells alone (no …); assay: flow cytometry, phage on T2 without peptide; secondary only 100, unstained 99.5
[13] = target: T1, HLA-A*02:01 on T2 cells alone (no …); assay: flow cytometry, phage on T2 cells
[14] = target: T1, HLA-A*02:01 on T2 cells alone (no …); assay: flow cytometry, phage on T2 cells, no peptide
[15] = target: T2, Foxp3-7 peptide/HLA-A*02:01 complex on …; assay: flow cytometry, phage on peptide-loaded T2 cells
[16] = target: T5, 017-mut7 peptide (…)/HLA-A*02:01 complex on T2 cells (human); assay: flow cytometry, phage on peptide-loaded T2 cells
T5 construct: Alanine mutant at position 7

[17] = target: T6, 017-mut5 peptide (…)/HLA-A*02:01 complex on T2 cells (human); assay: flow cytometry, phage on peptide-loaded T2 cells
T6 construct: Alanine mutant at position 5

[18] = target: T7, 017-mut3 peptide (…)/HLA-A*02:01 complex on T2 cells (human); assay: flow cytometry, phage on peptide-loaded T2 cells
T7 construct: Alanine mutant at position 3

[19] = target: T8, 017-mut8 peptide (…)/HLA-A*02:01 complex on T2 cells (human); assay: flow cytometry, phage on peptide-loaded T2 cells
T8 construct: Alanine mutant at position 8; also called TLI-A8

[20] = target: T9, 017-mut1 peptide (…)/HLA-A*02:01 complex on T2 cells (human); assay: flow cytometry, phage on peptide-loaded T2 cells
T9 construct: Alanine mutant of Foxp3-7 at position 1, pulsed onto T2 cells; also called EXT017-mut1

[21] = target: T10, 017-mut9 peptide (…)/HLA-A*02:01 complex on T2 cells (human); assay: flow cytometry, phage on peptide-loaded T2 cells
T10 construct: Alanine mutant at position 9

[22] = target: T11, 017-mut2 peptide (…)/HLA-A*02:01 complex on T2 cells (human); assay: flow cytometry, phage on peptide-loaded T2 cells
T11 construct: Alanine mutant at position 2, the anchor position; the peptide may load poorly onto HLA-A2; also called EXT017-mut2

[23] = target: T12, 017-mut4 peptide (…)/HLA-A*02:01 complex on T2 cells (human); assay: flow cytometry, phage on peptide-loaded T2 cells
T12 construct: Alanine mutant at position 4

Binder | binding result [1] | Median:FITC-A [2] | Median:FITC-A (T2+EW [3]) | Median:FITC-A [4] | Median:FITC-A [6] | Median:FITC-A [8] | Median:FITC-A [9] | Median:FITC-A [10] | Median:FITC-A [11] | binding result [13] | other results
#25 (scFv, also called EXT017-25; EXT017-25 scFv phage clone) scFv (VL-linker-VH-His/HA tag): QSVLTQPPSVSAAPGQKVTISCSGSSSNIGNNYVSWYQFLPGTAPKLLIYDNNQRPSGIPDRFSGFKSGTSATLDITGLQTGDEADYYCGTWDNSLSAAVFGRGTKLTVLGSRGGGGSGGGGSGGGGSLEMAQMQLVQSGTEVKRAGASVKVSCKASGYTFTNYYMHWVRQAPGQGLEWMGIINPSGGSTTYAQKFQGRVTMTRDTSTSTVYMELSDLGSEDTAVYYCARSWSKTEGSDRWGQGTLVTVSSTSGQAGQHHHHHHGAYPYDVPDYAS | no binding | 1030 | 375 | 386 |  |  |  |  |  |  | 
#29 (scFv, also called EXT017-29; EXT017-29 scFv phage clone) scFv (VL-linker-VH-His/HA tag): QSVLTQPPSVSAAPRQKVTISCSGSSSNIGNNYVSWYQQLPGTAPKLLIYDDNKRPSGIPDRFSGSKSGTSATLGITGLQTGDEADYYCGTWDSSLSAVVFGGGTKLTVLGSRGGGGSGGGGSGGGGSLEMAQVQLVQSGTEVKRAGASVKVSCKASGYTFTNYYMHWVRQAPGQGLEWMGIINPSIGSTNYAQKFQGRVTMTRDTSTSTVFMELSSLRSDDTAVYYCARSFGDSDGADSWGQGTLVTVSSTSGQAGQHHHHHHGAYPYDVPDYAS | no binding | 1010 | 359 | 369 |  |  |  |  |  |  | 
EXT017-11 scFv phage clone (scFv, also called phage clone #11) scFv: NFMLTQPHSVSESPGKTVTISCTRSSGSIASNYVQWYQQRPGSAPTTVIYEDNQRPSGVPDRFSGSIDSSSNSASLTISGLKTEDEADYYCQSYDTNNYGVIFGGGTKLTVLGSRGGGGSGGGGSGGGGSLEMAQMQLVQSGAEVKKPGASVKVSCKTSGYTFNNYYMHWVRQAPGQGLEWMGIINPSGGSTNYAQKFQGRVTMTRDTSTSTVYMELSSLRSEDTAVYYCARSFDKQDIDYWGQGTLVTVSSTSGQAGQHHHHHHGAYPYDVPDYAS |  |  |  |  | 454 | 119 | 2620 | 144 | 143 | no binding | Median:FITC-A (T2+EW [5]): 143; Median:FITC-A [7]: 1690; Median:FITC-A [12]: 142
EXT017-21 scFv phage clone (scFv, also called phage clone #21) scFv: SYELTQPPSVSVAPGQTASMTCGGNNIGSKSVHWYQQKPSQAPVMVVHDDSERPSGIPERISGSKSGNTATLTISRVEAGDEADYYCQVWDSSSDHVIFGGGTKLTVLGSRGGGGSGGGGSGGGGSLEMAQVQLVQSGAEVKKPGASVKVSCKASGYTFTNYYIHWVRQAPGQGLEWMGIIRPSGGITNYAQKFQGRVSMTRDTSTSTVYMELSSLRSEDTAVYYCARSWMSDSYYDGWGQGTLVTVSSTSGQAGQHHHHHHGAYPYDVPDYAS |  |  |  |  | 428 | 123 | 2220 | 143 | 147 | no binding | Median:FITC-A (T2+EW [5]): 143; Median:FITC-A [7]: 1550; Median:FITC-A [12]: 138
EXT017-54 scFv phage clone (scFv, full-length scFv with His+HA tags; also called EXT017-54 phage) scFv: QAVLTQPPSLSGGPRQRVTISCSGSTSNIGKNGVSWYQQLPGKAPKLLIYNDHLLSSGVSDRFSGSKSGTSASLAISGLQSDDEADYYCATWDDTLDLPLFGGGTKVTVLGSRGGGGSGGGGSGGGGSLEMAQMQLVQSGAEVEKPGASVKLSCKASGGTFSSYAISWVRQAPGQGLEWMGGIIPIFGTANYAQKFQGRVTITADESTSTAYMELSSLRSEDTAVYYCARPSYYSIKSAWDHWGQGTLVTVSSTSGQAGQHHHHHHGAYPYDVPDYAS | no binding | 732 | 364 | 343 |  | 122 | 4370 |  |  |  | MFI [14]: 89.9; MFI [15]: 30400; MFI [16]: 91.1; MFI [17]: 91.2; MFI [18]: 7780; MFI [19]: 5850; MFI [20]: 23500; MFI [21]: 3540; MFI [22]: 94.7
#34 (scFv, also called EXT017-34; EXT017-34 scFv phage clone) scFv (VL-linker-VH-His/HA tag): QSALTQPPSASGSPGQSVTISCTGTSSDVGAYNYVSWYQHYPGKAPKLMIYEVSERPSGVPDRFSGSKSGNTASLTVSGLQAEDEADYFCSSYAGSNNFVFGTGTKVTVLGSRGGGGSGGGGSGGGGSLEMAEVQLVQSGAEVKKPGSSVKVSCKASGGTFSSYAISWVRQAPGQGLEWMGRIIPILGIANYAQKFQGRVTITADKSSSTAYMALSSLTSEDTAVYYCARGGDYVESWFDPWGQGTLVTVSSTSGQAGQHHHHHHGAYPYDVPDYAS | no binding | 1050 | 386 | 361 |  |  |  |  |  |  | 
EXT017-32 scFv phage clone (scFv, also called EXT017-32 phage; phage clone #32) scFv: QSVLTQPPSVSVAPGKTARITCGGNNIGSKSVHWYQQKPGQAPVLVIYYDSDRPSGIPERFSGSNSGNTATLTISRVEAGDEADYYCQVWDSSSDHYVFGTGTKVTVLGSRGGGGSGGGGSGGGGSLEMAEVQLVESGGGVVQPGRSLRLSCAASGFTFNNHAMHWVRQAPGKGLEWVAVISFDGDDKFYADSVKGRFTISRDNSRNTLFLQMNNLRPEDTAVYYCSRDPYHFASGSYSYFDYWGQGTLVTVSSTSGQAGQHHHHHHGAYPYDVPDYAS |  | 1640 | 357 | 356 | 4070 | 123 | 3840 | 136 | 138 | no binding | MFI [14]: 91.8; MFI [15]: 27500; MFI [16]: 99.6; MFI [17]: 2710; MFI [18]: 21000; MFI [19]: 96.7; MFI [23]: 20800; MFI [20]: 15100; MFI [21]: 93.6; MFI [22]: 103
#55 (scFv, also called EXT017-55; EXT017-55 scFv phage clone) scFv (VL-linker-VH-His/HA tag): QSALTQPASVSGSPGQSITISCTGPTSDFNDYLFVSWYQQHPGKAPKLILYDVTHRPSGVSGRFSGSKSASTASLTISGLQAEDEADYFCGSKTGRTTYVFGTGTKVTVLGSRGGGGSGGGGSGGGGSLEMAQVQLVQSGAEVKKPGASVKVSCKASGYTFDNFGISWVRQAPGQGLEWMGWINTYDGYTNYVEKLQGRVTMTTDTSTGTAYMELRGLRSDDTAVYYCARSVPHQISYGDLWGQGTLVTVSSTSGQAGQHHHHHHGAYPYDVPDYAS | no binding |  | 391 | 389 |  |  |  |  |  |  | 

Reference: patent US20190284262A1 (Memorial Sloan Kettering, published 2019)
